# US20170166621A1
# Target: GLP-1 receptor (UniProt P43220)
# Assay: cell-based or functional assay
# Sequence of GLP-1 receptor (P43220 24-463 limits assumed): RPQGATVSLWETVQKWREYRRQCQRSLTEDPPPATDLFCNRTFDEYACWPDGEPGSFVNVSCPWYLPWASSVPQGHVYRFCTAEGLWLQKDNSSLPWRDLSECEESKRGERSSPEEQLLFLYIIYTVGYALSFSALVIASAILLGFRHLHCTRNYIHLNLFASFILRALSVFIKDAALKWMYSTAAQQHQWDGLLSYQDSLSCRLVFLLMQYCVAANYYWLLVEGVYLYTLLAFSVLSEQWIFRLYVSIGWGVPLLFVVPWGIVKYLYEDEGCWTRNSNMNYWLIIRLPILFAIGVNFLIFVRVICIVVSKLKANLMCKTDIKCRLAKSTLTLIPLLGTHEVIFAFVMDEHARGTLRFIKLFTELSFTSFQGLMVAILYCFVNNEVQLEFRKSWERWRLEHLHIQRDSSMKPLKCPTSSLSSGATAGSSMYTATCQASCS
substance,measurement,value
Exendin-4 (peptide),cAMP EC50 (fold-Ex-4); GLP-1R only cells,1 fold
same,cAMP EC50 (fold-Ex-4); GLP-1R/FGFR1c/beta-klotho cells,1 fold
same,cAMP EC50 (nM); GLP-1R only cells,11 nM
same,cAMP EC50 (nM); GLP-1R/FGFR1c/beta-klotho cells,6 nM
same,cAMP y-max (% Ex-4); GLP-1R only cells,100%
same,cAMP y-max (% Ex-4); GLP-1R/FGFR1c/beta-klotho cells,100%
